Numbering of substitutions follows the chain as printed. Numbers in names are those of the source.
T1: human CC chemokine receptor 4 (CCR4) (human, UniProt P51679 1-360)
T1 construct: whole, on cells; also called hCCR4
T1 sequence (looked up): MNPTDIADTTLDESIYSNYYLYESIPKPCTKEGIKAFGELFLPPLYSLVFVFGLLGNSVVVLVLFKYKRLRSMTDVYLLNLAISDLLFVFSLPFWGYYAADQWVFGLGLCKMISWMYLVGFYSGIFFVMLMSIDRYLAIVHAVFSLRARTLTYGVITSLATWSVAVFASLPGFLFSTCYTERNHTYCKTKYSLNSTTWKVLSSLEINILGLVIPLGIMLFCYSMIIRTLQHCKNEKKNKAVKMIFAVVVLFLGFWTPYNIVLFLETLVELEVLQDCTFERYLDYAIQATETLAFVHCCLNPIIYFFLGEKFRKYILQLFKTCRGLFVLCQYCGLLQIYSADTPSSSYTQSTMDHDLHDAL

B1: KW0761 (humanized KM2760 antibody) (antibody, V domains shown)
VH: EVQLVESGGDLVQPGRSLRLSCAASGFIFSNYGMSWVRQAPGKGLEWVATISSASTYSYYPDSVKGRFTISRDNAKNSLYLQMNSLRVEDTALYYCGRHSDGNFAFGYWGQGTLVTVSS
VL: DVLMTQSPLSLPVTPGEPASISCRSSRNIVHINGDTYLEWYLQKPGQSPQLLIYKVSNRFSGVPDRFSGSGSGTDFTLKISRVEAEDVGVYYCFQGSLLPWTFGQGTKVEIK
B2: mAb2-3 (Ab2-3IgG) (antibody, V domains shown)
VH: QVQLVQSGAEVKKPGASVKVSCKASGYTFASAWMHWMRQAPGQGLEWIGWINPGNVNTKYNEKFKGRATLTVDTSTNTAYMELSSLRSEDTAVYYCARSTYYRPLDYWGQGTLVTVSS
VL: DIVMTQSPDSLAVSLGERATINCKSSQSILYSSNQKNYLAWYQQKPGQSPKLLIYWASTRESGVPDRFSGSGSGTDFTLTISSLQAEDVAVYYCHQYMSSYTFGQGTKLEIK
notes: IgG form made by cloning VH and VL into the TCAE5.3 vector (human IgG1); also called APC-labeled mAb2-3
B3: h1567 VL-CDR3 mutant M1 (H105Q) (Fc fusion, not shown: a dimerising Fc or GST)
scFv: QVQLVQSGAEVKKPGASVKVSCKASGYTFASYYMHWMRQAPGQGLEWIGWINPGNVNTKYNEKFKGRATLTVDTSTNTAYMELSSLRSEDTAVYYCARSTYYRPLDYWGQGTLVTVSSGGGGSGGGGSGGGGSDIVMTQSPDSLAVSLGERATINCKSSQSILYSSNQKNYLAWYQQKPGQSPKLLIYWASTRESGVPDRFSGSGSGTDFTLTISSLQAEDVAVYYCQQYLSSYTFGQGTKLEIK
B4: Antibody 2-3 scFv-Fc (Fc fusion, not shown: a dimerising Fc or GST)
scFv: B3 scFv with Y32A, Y33W, Q228H, L231M
notes: also called Ab2-3 scFv-Fc; Mab 2-3

Tests used:
[1] = molecular target: T1, human CC chemokine receptor 4 (CCR4); assay: binding curve of FIG. 20B; cells not given
[2] = molecular target: T1, human CC chemokine receptor 4 (CCR4); assay: FACS titration (GMFI), 0 to 100 µg/mL in two-fold steps; cells not named in the legend
[3] = molecular target: T1, human CC chemokine receptor 4 (CCR4); assay: FACS, CCR4+ Mac-1 cells, dose dependent binding curve

| Binder | EC50 [1] [nM] | further results |
| --- | --- | --- |
| B1 | 2.19 | – |
| B2 | 0.35 | – |
| B3 | – | EC50 (read off the curve) [2]: ~0.5 µg/mL |
| B4 | – | EC50 [3]: 1.39 nM |

From patent US20160185865A1 (Dana-Farber, published 2016)
